Substitutions are numbered along the chain they refer to.
B1: 13D2 (antibody, V domains shown)
VH: DVQLQESGPGMVKPSQSLSLTCTVTGYSITSDYDWHWIRHFPGNKLEWMGYISYSGSTKYNPSLKSRISITHDTSKNHFFLKLNSVTAEDTATYYCARENDFPGFWYFDVWGTGTTVTVSS
VL: DIVMSQSPSSQVVSVGEKVTVTCTSSQSLLYGTNQKNYLAWYQQKPGQSPKLLIYWASIRESGVPDRFTGSGSGTDFTLTISSVKAEDLAVYYCQQYYSYPLTFGAGTKLELK
B2: monoclonal antibody 8A2 (antibody, V domains shown)
VH: QVQLKESGPGLVAPSQSLSITCTVSGFSLTTYGVDWVRQFPGKGLEWLGVIWGGGNTNYNSALMSRLSISKDTSKSQVFLKMNSLQTDDTAMYYCAKHKGTSHAMEYWGQGTSVTVSS
VL: QIVLTQSPAIMSASPGEKVTMTCSASSRVIFMYWYQQKPGSSPRLLIYDTSNLASGVPVRFSGGGSGTSYSLTISRMEAEDAATYYCQQWSSYPPTFGAGTKLELK
B3: humanized 16H11-derived Fab, VH AK446-7 / VL AK418-2 (Fab, V domains shown)
VH: QVQLVQSGAEVKKPGSSVKVSCKASGYDFSNFWMNWVRQAPGQGLEWMGQIYPGDGEIKYNQKFQGRVTITADESTSTAYMELSSLRSEDTAVYYCARDDYLRAMDIWGQGTMVTVSS
VL: DIQMTQSPSSLSASVGDRVTITCRASGNIHNYLAWYQQKPGKAPKFLLYSAKRLESGVPSRFSGSGSGTDYTLTISSLQPEDFATYYCQHFWSSPYTFGGGTKVEIK
notes: Measured as monovalent Fab; also called No. 33; AK446-7/AK418-2
B4: humanized 16H11-derived Fab, VH AK484-6 / VL AK418-2 (Fab, V domains shown)
VH: B3 VH with F32Y
VL: B3 VL
notes: Measured as monovalent Fab; also called No. 42; VH484-6 and VL418-2
B5: humanized 16H11-derived Fab, VH AK446-7 / VL AK419-2 (Fab, V domains shown)
VH: B3 VH
VL: B3 VL with G27Q
notes: Measured as monovalent Fab; also called No. 37
B6: humanized 16H11-derived Fab, VH AK449-4 / VL AK448-3 (Fab, V domains shown)
VH: B3 VH with Q50G
VL: B3 VL with G27Q, G100Q, V104L
notes: Measured as monovalent Fab; also called No. 29; VH449-4 and VL448-3
B7: humanized 16H11-derived Fab, VH AK465-17 / VL AK448-3 (Fab, V domains shown)
VH: B3 VH with N61A
VL: B3 VL with G27Q, G100Q, V104L
notes: Measured as monovalent Fab; also called No. 41
B8: humanized 16H11-derived Fab, VH AK485-5 / VL AK448-3 (Fab, V domains shown)
VH: B3 VH with W33A
VL: B3 VL with G27Q, G100Q, V104L
notes: Measured as monovalent Fab; also called No. 46
B9: humanized 16H11-derived Fab, VH AK484-7 / VL AK448-3 (Fab, V domains shown)
VH: B3 VH with F32Y, I107Y, M113L
VL: B3 VL with G27Q, G100Q, V104L
notes: Measured as monovalent Fab; also called No. 44; VH484-7 and VL448-3
B10: humanized 16H11-derived Fab, VH AK465-17 / VL AK418-2 (Fab, V domains shown)
VH: B3 VH with N61A
VL: B3 VL
notes: Measured as monovalent Fab; also called No. 39; FH465-17 and VL418-2
B11: humanized 16H11-derived Fab, VH AK438-4 / VL AK418-2 (Fab, V domains shown)
VH: B3 VH with I70L, Y95F, I107Y, M113L
VL: B3 VL
notes: Measured as monovalent Fab; also called No. 17; VH438-4 and VL418-2
B12: humanized 16H11-derived Fab, VH AK417-17 / VL AK426-2 (Fab, V domains shown)
VH: B3 VH with Q50G, K59N, N61A
VL: B3 VL with G27Q, F46L, E55A
notes: Measured as monovalent Fab; also called No. 9
B13: humanized 16H11-derived Fab, VH AK485-5 / VL AK418-2 (Fab, V domains shown)
VH: B3 VH with W33A
VL: B3 VL
notes: Measured as monovalent Fab; also called No. 45
B14: humanized 16H11-derived Fab, VH AK417-17 / VL AK427-1 (Fab, V domains shown)
VH: B3 VH with Q50G, K59N, N61A
VL: B3 VL with G27Q, F46L, S56D
notes: Measured as monovalent Fab; also called No. 10
B15: humanized 16H11-derived Fab, VH AK463-2 / VL AK448-3 (Fab, V domains shown)
VH: B3 VH with I107Y, M113L
VL: B3 VL with G27Q, G100Q, V104L
notes: Measured as monovalent Fab; also called No. 36; Vh463-2 and VL448-3
B16: humanized 16H11-derived Fab, VH AK447-2 / VL AK448-3 (Fab, V domains shown)
VH: B3 VH with K59N
VL: B3 VL with G27Q, G100Q, V104L
notes: Measured as monovalent Fab; also called No. 27
B17: humanized 16H11-derived Fab, VH AK444-2 / VL AK418-2 (Fab, V domains shown)
VH: B3 VH with Y95F, I107Y, M113L
VL: B3 VL
notes: Measured as monovalent Fab; also called No. 24; VH444-2 and VL418-2
B18: humanized 16H11-derived Fab, VH AK446-7 / VL AK448-3 (Fab, V domains shown)
VH: B3 VH
VL: B3 VL with G27Q, G100Q, V104L
notes: Measured as monovalent Fab; also called No. 34; AK446-7/AK448-3
B19: humanized 16H11-derived Fab, VH AK443-1 / VL AK418-2 (Fab, V domains shown)
VH: B3 VH with A24G
VL: B3 VL
notes: Measured as monovalent Fab; also called No. 23; VH443-1 and VL418-2
B20: humanized 16H11-derived Fab, VH AK449-6 / VL AK418-2 (Fab, V domains shown)
VH: B3 VH with A24G, Q50G
VL: B3 VL
notes: Measured as monovalent Fab; also called No. 30; VH449-6 and VL418-2
B21: humanized 16H11-derived Fab, VH AK463-2 / VL AK418-2 (Fab, V domains shown)
VH: B3 VH with I107Y, M113L
VL: B3 VL
notes: Measured as monovalent Fab; also called No. 35; VH463-2 and VL418-2
B22: humanized 16H11-derived Fab, VH AK465-17 / VL AK419-2 (Fab, V domains shown)
VH: B3 VH with N61A
VL: B3 VL with G27Q
notes: Measured as monovalent Fab; also called No. 40
B23: humanized 16H11-derived Fab, VH AK417-17 / VL AK425-3 (Fab, V domains shown)
VH: B3 VH with Q50G, K59N, N61A
VL: B3 VL with F46L, S56D
notes: Measured as monovalent Fab; also called No. 8
B24: humanized 16H11-derived Fab, VH AK447-2 / VL AK418-2 (Fab, V domains shown)
VH: B3 VH with K59N
VL: B3 VL
notes: Measured as monovalent Fab; also called No. 26
B25: humanized 16H11-derived Fab, VH AK485-4 / VL AK448-3 (Fab, V domains shown)
VH: B3 VH with W33A, I107Y, M113L
VL: B3 VL with G27Q, G100Q, V104L
notes: Measured as monovalent Fab; also called No. 47
B26: humanized 16H11-derived Fab, VH AK410-1 / VL AK418-2 (Fab, V domains shown)
VH: B3 VH with Q50G, K59N, N61A, I107Y, M113L
VL: B3 VL
notes: Measured as monovalent Fab; also called No. 1; AK410-1/AK418-2
B27: humanized 16H11-derived Fab, VH AK417-17 / VL AK439-5 (Fab, V domains shown)
VH: B3 VH with Q50G, K59N, N61A
VL: B3 VL with G27Q, S56D, G100Q, V104L
notes: Measured as monovalent Fab; also called No. 21
B28: humanized 16H11-derived Fab, VH AK417-8 / VL AK439-5 (Fab, V domains shown)
VH: B3 VH with Q50G, K59N, N61A, I107V
VL: B3 VL with G27Q, S56D, G100Q, V104L
notes: Measured as monovalent Fab; also called No. 22
B29: humanized 16H11-derived Fab, VH AK417-17 / VL AK424-1 (Fab, V domains shown)
VH: B3 VH with Q50G, K59N, N61A
VL: B3 VL with F46L, E55A
notes: Measured as monovalent Fab; also called No. 7
B30: humanized 16H11-derived Fab, VH AK417-17 / VL AK421-3 (Fab, V domains shown)
VH: B3 VH with Q50G, K59N, N61A
VL: B3 VL with G100Q, V104L
notes: Measured as monovalent Fab; also called No. 5
B31: humanized 16H11-derived Fab, VH AK484-6 / VL AK448-3 (Fab, V domains shown)
VH: B3 VH with F32Y
VL: B3 VL with G27Q, G100Q, V104L
notes: Measured as monovalent Fab; also called No. 43; VH484-6 and VL448-3
B32: humanized 16H11-derived Fab, VH AK449-6 / VL AK448-3 (Fab, V domains shown)
VH: B3 VH with A24G, Q50G
VL: B3 VL with G27Q, G100Q, V104L
notes: Measured as monovalent Fab; also called No. 31
B33: humanized 16H11-derived Fab, VH AK441-2 / VL AK418-2 (Fab, V domains shown)
VH: B3 VH with A24G, I70L
VL: B3 VL
notes: Measured as monovalent Fab; also called No. 19; VH441-2 and VL418-2
B34: humanized 16H11-derived Fab, VH AK440-2 / VL AK418-2 (Fab, V domains shown)
VH: B3 VH with A24G, Y95F, I107Y, M113L
VL: B3 VL
notes: Measured as monovalent Fab; also called No. 18; VH440-2 and VL418-2
B35: humanized 16H11-derived Fab, VH AK445-3 / VL AK418-2 (Fab, V domains shown)
VH: B3 VH with I70L
VL: B3 VL
notes: Measured as monovalent Fab; also called No. 25; VH445-3 and VL418-2
B36: humanized 16H11-derived Fab, VH AK449-4 / VL AK418-2 (Fab, V domains shown)
VH: B3 VH with Q50G
VL: B3 VL
notes: Measured as monovalent Fab; also called No. 28
B37: humanized 16H11-derived Fab, VH AK387-11 / VL AK418-2 (Fab, V domains shown)
VH: B3 VH with A24G, I70L, Y95F, I107Y, M113L
VL: B3 VL
notes: Measured as monovalent Fab; also called No. 32; VH387-11 and VL418-2
B38: humanized 16H11-derived Fab, VH AK463-2 / VL AK419-2 (Fab, V domains shown)
VH: B3 VH with I107Y, M113L
VL: B3 VL with G27Q
notes: Measured as monovalent Fab; also called No. 38
B39: anti-Siglec-7 antibody 4B12 (antibody, V domains shown)
VH: EVQLQQSGPELVKPGASVKIPCKASGYTFTDYNMDWVKQSHEKSLEWIGDIDPHNGVTLYNQKFKDKATLTIDKSSNTAYMELRSLTSEDSAVYYCALTGSTYWGQGTLVTVSA
VL: DIVMTQSQKFMSTSVGDRVSVTCKASQNVGTNVAWYQQKPGQSPKAVIYSASYRNSGVPDRFTGSGSGTDFTLTISNVQSEDLTEYFCQQYNNYPYTFGGGTKLEIK
notes: Used as an AF647 conjugate for detection in the internalization assay; also called 4B12-AF647

Each binder was assayed against Siglec-7 on primary human cells (NK cells, CD8+ tumor-infiltrating T cells) (human, UniProt Q9Y286 19-467) (assay: cell-based or functional assay).
Chain of Siglec-7 on primary human cells (NK cells, CD8+ tumor-infiltrating T cells) (Q9Y286 19-467 limits assumed): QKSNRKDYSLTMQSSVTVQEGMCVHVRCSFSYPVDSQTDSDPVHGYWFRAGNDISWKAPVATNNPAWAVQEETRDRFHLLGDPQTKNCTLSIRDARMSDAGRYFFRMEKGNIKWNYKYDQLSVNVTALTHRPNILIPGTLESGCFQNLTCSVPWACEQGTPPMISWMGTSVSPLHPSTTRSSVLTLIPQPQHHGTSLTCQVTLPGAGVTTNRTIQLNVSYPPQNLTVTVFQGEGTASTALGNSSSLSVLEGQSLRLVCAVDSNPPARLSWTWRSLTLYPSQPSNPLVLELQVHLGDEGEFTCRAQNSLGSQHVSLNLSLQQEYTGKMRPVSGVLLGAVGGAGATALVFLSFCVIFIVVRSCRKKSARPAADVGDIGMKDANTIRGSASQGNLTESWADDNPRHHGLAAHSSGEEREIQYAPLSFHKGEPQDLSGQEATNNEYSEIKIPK

Row | Binder | IC50 of Siglec-7 internalization on NK cells (24 h, PBMC; remaining surface Siglec-7 stained with 4B12-AF647) [nM]
1 | B1 | 0.0175
2 | B2 | 0.0149

What follows are binders tested against T1, Siglec-7-ECD (human, UniProt Q9Y286 19-353) (assay: monovalent Fab; bio-layer interferometry (ForteBio) per Methods).
T1 construct: also called p75; AIRM
T1 sequence (Q9Y286 19-353 limits assumed): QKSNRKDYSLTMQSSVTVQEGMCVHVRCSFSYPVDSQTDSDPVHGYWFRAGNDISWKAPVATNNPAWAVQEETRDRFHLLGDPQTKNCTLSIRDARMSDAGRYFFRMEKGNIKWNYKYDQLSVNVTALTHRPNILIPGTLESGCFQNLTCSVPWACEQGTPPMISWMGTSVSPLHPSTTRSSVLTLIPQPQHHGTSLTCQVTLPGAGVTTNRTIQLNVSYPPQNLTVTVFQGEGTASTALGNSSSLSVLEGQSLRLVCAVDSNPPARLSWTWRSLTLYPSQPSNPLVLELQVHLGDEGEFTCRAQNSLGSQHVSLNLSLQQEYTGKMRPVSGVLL

Row | Binder | Kd [nM]
3 | B3 | < 0.075
4 | B4 | < 0.1
5 | B5 | > 0.5
6 | B6 | < 0.1
7 | B7 | 0.1 to 0.15
8 | B8 | > 0.5
9 | B9 | < 0.075
10 | B10 | < 0.075
11 | B11 | < 0.075
12 | B12 | > 0.5
13 | B13 | > 0.5
14 | B14 | > 0.5
15 | B15 | < 0.075
16 | B16 | 0.075 to 0.15
17 | B17 | < 0.075
18 | B18 | < 0.075
19 | B19 | < 0.075
20 | B20 | < 0.1

Row | Binder | Kd [nM]
21 | B21 | < 0.075
22 | B22 | 0.15 to 0.25
23 | B23 | > 0.5
24 | B24 | 0.075 to 0.15
25 | B25 | > 0.5
26 | B26 | 0.25 to 0.5
27 | B27 | 0.25 to 0.5
28 | B28 | 0.25
29 | B29 | > 0.5
30 | B30 | 0.25 to 0.5
31 | B31 | < 0.075
32 | B32 | 0.05 to 0.1
33 | B33 | < 0.075
34 | B34 | < 0.1
35 | B35 | < 0.075
36 | B36 | 0.075 to 0.15
37 | B37 | < 0.075
38 | B38 | > 0.5

The binders below were run against T1, Siglec-7-ECD (assay: bio-layer interferometry (ForteBio): antibody captured on the sensor, Siglec-7-ECD as analyte, 1:1 global fit).
Procedure: A panel of antibodies was evaluated for binding to Siglec-7. The results identified anti-Siglec-7 antibodies that have improved KD values compared to commercially available anti-Siglec-7 antibodies (FIG. 7).
Antibody binding analysis was carried out by bio-layer interferometry (ForteBio). […] Antibodies were captured on anti-mouse kinetic sensors at 0.5 ug/mL; Siglec-7-ECD was used as analyte and diluted in assay buffer from 50 nM to 1.56 nM with 2× dilutions. Two-minute associations were conducted, followed by 10-minute dissociations. Results were determined relative to a control empty reference AHC sensor, and analyzed using ForteBio analysis software with 1:1 global fit parameters.

Row | Binder | Kd [nM]
39 | B2 | 0.001
40 | B39 | 0.26
